Data as given in the supplement of paper PMC9112550, “Optimization of the antimicrobial peptide Bac7 by deep mutational scanning” (BMC Biology, 2022).

Each sequence was assayed on Escherichia coli TOP10 (assay: shrunken log2 fold change of peptide-encoding DNA abundance (4.5 h post-induction vs induction); higher = less antimicrobial activity (less host growth inhibition)). Conditions: time post-induction: 4.5 h; library: site-saturation at positions 5, 18, 19, 20.
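Also: peptides expressed intracellularly from a pBAD plasmid library in pooled LB shake-flask culture, induced with 0.3% L-arabinose, DNA abundance read by NGS, three biological replicates, DESeq2 with apeglm shrinkage.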

Row | Sequence | shrunken log2 fold change
1 | RRIRKRPPRLPRPRPRPAMNPRP | -0.0724
2 | RRIRWRPPRLPRPRPRPKHDPRP | 0.0868
3 | RRIRYRPPRLPRPRPRPLTAPRP | -0.492
4 | RRIRTRPPRLPRPRPRPATEPRP | -0.0814
5 | RRIRLRPPRLPRPRPRPLLFPRP | -0.242
6 | RRIRTRPPRLPRPRPRPDNEPRP | -0.248
7 | RRIRARPPRLPRPRPRPRLAPRP | 1.53
8 | RRIRSRPPRLPRPRPRPNMHPRP | -0.257
9 | RRIRLRPPRLPRPRPRPYYHPRP | -0.712
10 | RRIRCRPPRLPRPRPRPPVSPRP | 0.134
11 | RRIRGRPPRLPRPRPRPEARPRP | 1.54
12 | RRIRTRPPRLPRPRPRPHCLPRP | -0.305
13 | RRIRYRPPRLPRPRPRPARSPRP | 0.134
14 | RRIRGRPPRLPRPRPRPWLFPRP | 0.458
15 | RRIRIRPPRLPRPRPRPMAAPRP | 0.403
16 | RRIRFRPPRLPRPRPRPHQYPRP | -0.88
17 | RRIRERPPRLPRPRPRPVRGPRP | 0.543
18 | RRIRHRPPRLPRPRPRPPSGPRP | 0.771
19 | RRIRLRPPRLPRPRPRPERQPRP | 0.0746
20 | RRIRWRPPRLPRPRPRPMHRPRP | -0.0497
21 | RRIRKRPPRLPRPRPRPDELPRP | 2.45
22 | RRIRCRPPRLPRPRPRPVLGPRP | 0.0642
23 | RRIRYRPPRLPRPRPRPPGQPRP | 0.0011
24 | RRIRGRPPRLPRPRPRPNPYPRP | -0.0945
25 | RRIRCRPPRLPRPRPRPETCPRP | 0.0181

Row | Sequence | shrunken log2 fold change
26 | RRIRVRPPRLPRPRPRPGKDPRP | 0.114
27 | RRIRSRPPRLPRPRPRPRYQPRP | -0.145
28 | RRIRHRPPRLPRPRPRPCCQPRP | -0.243
29 | RRIRGRPPRLPRPRPRPIMMPRP | -0.0902
30 | RRIRTRPPRLPRPRPRPNLHPRP | -0.725
31 | RRIRIRPPRLPRPRPRPICCPRP | -0.107
32 | RRIRHRPPRLPRPRPRPCNKPRP | -0.395
33 | RRIRERPPRLPRPRPRPFPIPRP | 0.118
34 | RRIRVRPPRLPRPRPRPAARPRP | 0.47
35 | RRIRRRPPRLPRPRPRPYTEPRP | -0.452
36 | RRIRVRPPRLPRPRPRPYGYPRP | -1.16
37 | RRIRNRPPRLPRPRPRPTTSPRP | -0.292
38 | RRIRNRPPRLPRPRPRPYLWPRP | -0.23
39 | RRIRGRPPRLPRPRPRPEDPPRP | 1.38
40 | RRIRERPPRLPRPRPRPKCMPRP | -0.0455
41 | RRIRWRPPRLPRPRPRPQINPRP | -0.348
42 | RRIRVRPPRLPRPRPRPAFQPRP | 0.151
43 | RRIRGRPPRLPRPRPRPIMGPRP | 0.0308
44 | RRIRYRPPRLPRPRPRPCHQPRP | -0.00822
45 | RRIRHRPPRLPRPRPRPCSHPRP | -0.0787
46 | RRIRMRPPRLPRPRPRPNMRPRP | 1.6
47 | RRIRDRPPRLPRPRPRPDRTPRP | 0.0519
48 | RRIRHRPPRLPRPRPRPCGFPRP | 0.134
49 | RRIRKRPPRLPRPRPRPLIDPRP | 0.449
50 | RRIRHRPPRLPRPRPRPRSFPRP | -0.0488

Row | Sequence | shrunken log2 fold change
51 | RRIRGRPPRLPRPRPRPGRQPRP | 0.654
52 | RRIRSRPPRLPRPRPRPPPAPRP | 1.04
53 | RRIRWRPPRLPRPRPRPTHTPRP | -0.252
54 | RRIRCRPPRLPRPRPRPLMNPRP | -0.645
55 | RRIRERPPRLPRPRPRPRWLPRP | 0.108
56 | RRIRWRPPRLPRPRPRPYHSPRP | -0.215
57 | RRIRYRPPRLPRPRPRPISNPRP | -0.191
58 | RRIRMRPPRLPRPRPRPDLFPRP | 0.803
59 | RRIRKRPPRLPRPRPRPLKTPRP | -0.151
60 | RRIRDRPPRLPRPRPRPPHAPRP | 0.631
61 | RRIRIRPPRLPRPRPRPHFWPRP | 0.0146
62 | RRIRDRPPRLPRPRPRPWTNPRP | -0.111
63 | RRIRNRPPRLPRPRPRPHQRPRP | 0.244
64 | RRIRRRPPRLPRPRPRPTPVPRP | 0.969
65 | RRIRNRPPRLPRPRPRPYRYPRP | 0.0342
66 | RRIRARPPRLPRPRPRPVNCPRP | 1.04
67 | RRIRWRPPRLPRPRPRPCSNPRP | -0.0711
68 | RRIRWRPPRLPRPRPRPIPFPRP | -0.102
69 | RRIRARPPRLPRPRPRPMMRPRP | 1.22
70 | RRIRRRPPRLPRPRPRPNSLPRP | -0.652
71 | RRIRMRPPRLPRPRPRPVWQPRP | 0.752
72 | RRIRTRPPRLPRPRPRPPKGPRP | 0.107
73 | RRIRKRPPRLPRPRPRPNWYPRP | -0.185
74 | RRIRERPPRLPRPRPRPTKQPRP | -0.275
75 | RRIRGRPPRLPRPRPRPQHQPRP | 0.524

Row | Sequence | shrunken log2 fold change
76 | RRIRQRPPRLPRPRPRPTQYPRP | -0.0342
77 | RRIRGRPPRLPRPRPRPFKGPRP | -0.00192
78 | RRIRERPPRLPRPRPRPCTPPRP | -0.239
79 | RRIRNRPPRLPRPRPRPWVHPRP | -0.288
80 | RRIRGRPPRLPRPRPRPVSIPRP | 0.00516
81 | RRIRLRPPRLPRPRPRPFPSPRP | -0.173
82 | RRIRYRPPRLPRPRPRPTRGPRP | 0.543
83 | RRIRCRPPRLPRPRPRPDNNPRP | -0.661
84 | RRIRPRPPRLPRPRPRPWKLPRP | -0.0861
85 | RRIRRRPPRLPRPRPRPHIWPRP | -0.0694
86 | RRIRMRPPRLPRPRPRPQIKPRP | -0.0128
87 | RRIRNRPPRLPRPRPRPNGRPRP | -0.00776
88 | RRIRARPPRLPRPRPRPGRAPRP | 0.731
89 | RRIRLRPPRLPRPRPRPQHLPRP | -0.223
90 | RRIRCRPPRLPRPRPRPPEVPRP | 0.124
91 | RRIRSRPPRLPRPRPRPEMVPRP | 0.0797
92 | RRIRARPPRLPRPRPRPDTFPRP | 0.158
93 | RRIRIRPPRLPRPRPRPLNCPRP | -0.0654
94 | RRIRQRPPRLPRPRPRPSPQPRP | 0.548
95 | RRIRHRPPRLPRPRPRPLSAPRP | 0.242
96 | RRIRRRPPRLPRPRPRPCNAPRP | -0.105
97 | RRIRCRPPRLPRPRPRPSQCPRP | -0.548
98 | RRIRYRPPRLPRPRPRPEAHPRP | -0.281
99 | RRIRDRPPRLPRPRPRPLCGPRP | 0.32
100 | RRIRWRPPRLPRPRPRPHAQPRP | 0.0298

Row | Sequence | shrunken log2 fold change
101 | RRIRVRPPRLPRPRPRPSRWPRP | 0.278
102 | RRIRPRPPRLPRPRPRPIWNPRP | -0.282
103 | RRIRYRPPRLPRPRPRPAPSPRP | -0.0165
104 | RRIRIRPPRLPRPRPRPNTDPRP | -0.703
105 | RRIRPRPPRLPRPRPRPRKIPRP | -0.0764
106 | RRIRTRPPRLPRPRPRPYPVPRP | 0.154
107 | RRIRIRPPRLPRPRPRPYIIPRP | -0.403
108 | RRIRYRPPRLPRPRPRPQIQPRP | -0.473
109 | RRIRLRPPRLPRPRPRPTMHPRP | 0.0766
110 | RRIRMRPPRLPRPRPRPMIDPRP | -0.0842
111 | RRIRARPPRLPRPRPRPFWCPRP | 0.0247
112 | RRIRVRPPRLPRPRPRPSWGPRP | 0.0232
113 | RRIRSRPPRLPRPRPRPHVDPRP | -0.0165
114 | RRIRERPPRLPRPRPRPNEEPRP | 0.00699
115 | RRIRRRPPRLPRPRPRPQLIPRP | -0.0726
116 | RRIRRRPPRLPRPRPRPRIYPRP | -0.0573
117 | RRIRCRPPRLPRPRPRPDAHPRP | -0.0835
118 | RRIRKRPPRLPRPRPRPQYQPRP | -0.11
119 | RRIRGRPPRLPRPRPRPHRCPRP | -0.0209
120 | RRIRLRPPRLPRPRPRPTTFPRP | 0.0632
121 | RRIRGRPPRLPRPRPRPPRHPRP | 0.818
122 | RRIRHRPPRLPRPRPRPRNFPRP | 0.134
123 | RRIRTRPPRLPRPRPRPDGSPRP | 0.0485
124 | RRIRSRPPRLPRPRPRPLPEPRP | 0.278
125 | RRIRWRPPRLPRPRPRPYECPRP | -0.148

Row | Sequence | shrunken log2 fold change
126 | RRIRQRPPRLPRPRPRPPHYPRP | 0.37
127 | RRIRKRPPRLPRPRPRPTRPPRP | 0.764
128 | RRIRYRPPRLPRPRPRPYPMPRP | -0.744
129 | RRIRERPPRLPRPRPRPKVIPRP | -0.0206
130 | RRIRMRPPRLPRPRPRPNGEPRP | 0.278
131 | RRIRQRPPRLPRPRPRPGCSPRP | 0.0894
132 | RRIRARPPRLPRPRPRPCLEPRP | 0.19
133 | RRIRIRPPRLPRPRPRPVVCPRP | -0.000979
134 | RRIRSRPPRLPRPRPRPWNNPRP | -0.627
135 | RRIRFRPPRLPRPRPRPCIDPRP | 0.255
136 | RRIRNRPPRLPRPRPRPCLSPRP | -0.043
137 | RRIRFRPPRLPRPRPRPRADPRP | 0.223
138 | RRIRDRPPRLPRPRPRPIVTPRP | 0.171
139 | RRIRHRPPRLPRPRPRPILFPRP | -0.148
140 | RRIRFRPPRLPRPRPRPYFPPRP | -0.599
141 | RRIRWRPPRLPRPRPRPNEYPRP | -0.39
142 | RRIRLRPPRLPRPRPRPCCTPRP | -0.0665
143 | RRIRVRPPRLPRPRPRPFGKPRP | -0.151
144 | RRIRVRPPRLPRPRPRPVLRPRP | 0.187
145 | RRIRHRPPRLPRPRPRPEYHPRP | -0.317
146 | RRIRDRPPRLPRPRPRPNYQPRP | -0.187
147 | RRIRCRPPRLPRPRPRPICDPRP | -0.0093
148 | RRIRHRPPRLPRPRPRPEQRPRP | 0.229
149 | RRIRGRPPRLPRPRPRPLGSPRP | 0.338
150 | RRIRERPPRLPRPRPRPHCMPRP | -0.235
